# According to publication PMC8653965, “Direct Electrochemical Generation of Catalytically Competent Oxyferryl Species of Classes I and P Dye Decolorizing Peroxidases” (International Journal of Molecular Sciences, 2021):
# Substrate: CCn1c(=NN=c2sc3cc(S(=O)(=O)O)ccc3n2CC)sc2cc(S(=O)(=O)O)ccc21
# Experiment: purified protein
# Format: biochemical, Bacillus subtilis
# Details: no H2O2, applied potential −0.190 V, aerobic (O2), pH 7.6, 298 K, 20 mM TRIS-HCl, 200 mM KCl, 25.0 °C
protein,measurement,value
"BsDyP (Bacillus subtilis subsp. subtilis str. 168) (protein, signal (Tat) peptide deleted; plasmid pVB4; expressed in E. coli Tuner; purified) IGASGLGGLAPLVQTAAKPSKKDEKEEEQIVPFYGKHQAGITTAHQTYVYFAALDVTAKDKSDIITLFRNWTSLTQMLTSGKKMSAEQRNQYLPPQDTGESADLSPSNLTVTFGFGPGFFEKDGKDRFGLKSKKPKHLAALPAMPNDNLDEKQGGGDICIQVCADDEQVAFHALRNLLNQAVGTCEVRFVNKGFLSGGKNGETPRNLFGFKDGTGNQSTKDDTLMNSIVWIQSGEPDWMTGGTYMAFRKIKMFLEVWDRSSLKDQEDTFGRRKSSGAPFGQKKETDPVKLNQIPSNSHVSLAKSTGKQILRRAFSYTEGLDPKTGYMDAGLLFISFQKNPDNQFIPMLKALSAKDALNEYTQTIGSALYACPGGCKKGEYIAQRLLES",Km,1155 ± 100 µM
same,kcat,18 ± 1 s⁻¹
same,kcat/Km,16000 M⁻¹ s⁻¹
